Test results from patent US8252764B2, “Compositions and methods of use of targeting peptides against placenta and adipose tissues” (priority 2000, dated 2012).
Each block holds one compound with its values, some of them ahead of it. Bridge positions count the residues as written; N and C are the ends. Square brackets hold non-standard residues; d marks the D form. Ends that are not written are not given here. Peptide text beside a SMILES is read from it. * marks the point of attachment. Cbz = O=C(OCc1ccccc1)*; CH2F = FC*

Columns and labels:
fat vasculature = format: in vivo
Protocol: FIG. 10. Treatment of mouse obesity with fat vasculature-targeted apoptosis. Three cohorts (n=3) of (A) high-fat cafeteria diet-fed obese c57bl/6 mice; or (B) regular diet-fed old (˜1 year) c57bl/6 mice were each subcutaneously injected daily with equimolar amounts of the indicated peptides. Mouse body mass measurement was taken on days when injections were performed (injections were skipped on days for which body mass measurement is not shown). Error bars are SEM for the measurements in three mice.
FIG. 11. Fat resorption induced by fat vasculature-targeted apoptosis. (A) Representative high-fat cafeteria diet-fed obese c57bl/6 mice; (B) and (C) representative regular diet-fed old (˜1 year) c57bl/6 mice; or (D) epididymal fat from representative regular diet-fed old c57bl/6 mice from the experiment described in FIG. 10. Whole mice (A), subcutaneous fat (B), peritoneal fat (C) and total epididymal fat (D) from the corresponding indicated treatments were photographed 1 week (A) or 3 weeks (B), (C) and (D) after the beginning of subcutaneous injections. The injected peptides were […] (SEQ ID NO:22) linked to (KLAKLAK)2 (SEQ ID NO:1) (left column), CARAC (SEQ ID NO:12) linked to (KLAKLAK)2 (SEQ ID NO:1) (middle column), and […] (SEQ ID NO:22) co-administered with (KLAKLAK)2 (SEQ ID NO:1) (right column).
FIG. 12. Destruction of fat blood vessels as a result of targeted apoptosis. (A) Tunnel immunohistochemistry, (B) secondary antibody only negative tunnel staining control and (C) and (D) hematoxylin/eosin staining of white fat of mice. (A), (B) and (C) Mice were treated with […] (SEQ ID NO:22) linked to (KLAKLAK)2 (SEQ ID NO:1). (D) Mice were treated with CARAC (SEQ ID NO:12) linked to (KLAKLAK)2 (SEQ ID NO:1). Apoptosis (arrows, (A)) and necrosis/lymphocyte infiltration (arrows, (C)) in response to […] (SEQ ID NO:22) linked to (KLAKLAK)2 (SEQ ID NO:1) treatment are indicated. Bar: 10 μm.
Stocks of […] (SEQ ID NO:22) fused to (KLAKLAK)2 (SEQ ID NO:1); (KLAKLAK)2 (SEQ ID NO:1) alone; CARAC (SEQ ID NO:12) fused to (KLAKLAK)2 (SEQ ID NO:1); and […] (SEQ ID NO:22) peptide were chemically synthesized, cyclized using the terminal cysteines and HPLC-purified to >90% (Anaspec). Lyophilized peptides were dissolved in DMSO to a concentration of 65 mM to make stock solutions. A total of 150 μl of 0.65 mM peptide solution in PBS was subcutaneously injected daily in the back of C57BL/6 males, after body mass was measured each day. High-fat cafeteria diet for obesity induction (TD97366: 25.4% fat, 21.79% protein, 38.41% carbohydrate) was purchased from Harlan Teklad. Mice were pre-fed with TD97366 prior to the initiation of treatment with adipose targeting peptides to induce diet-related obesity.

HUVEC cells = assay: Apoptosis assay in HUVEC (propidium iodide, chromatin fragmentation); format: cell-based, human
Protocol: FIG. 26. Penetratin peptide chimera binding to the β5 cytoplasmic domain induces programmed cell death. 10^6 HUVEC cells were harvested in complete media and 15 μM penetratin peptide chimeras were added to the cells. […] (a) Profile obtained with starved cells after 24 h. (b) Confluent cells in complete media. (c) 15 μM of penetratin after four hours. (d) 15 μM of VISY-penetratin chimera after four hours.
FIG. 30. Chimeric peptide containing VISY peptide linked to penetratin (antennapedia) induces apoptosis. VISY induced apoptosis was inhibited by addition of a caspase inhibitor (zVAD).
Approximately 1×10^6 cells were harvested in complete media and 15 AM of peptide added for 4, 8, or 12 h. The cellswere then washed in PBS and resuspended in 0.5 ml propidium iodide solution (50 μg/ml PI, 0.1% Triton X-100, 0.1% sodium citrate). After a 24-h incubation at 4° C., cells were counted with a XL Coulter (Coulter Corporation) with a 488-nm laser; 12,000 cells were counted for each histogram, and cell cycle distributions were analyzed with Multicycle program.
Approximately 1×10^6 cells were harvested in complete medium, and 15 μM of peptide was added for 4, 8, or 12 hours. The cells were then washed in PBS and resuspended in 0.5 ml propidium iodide solution (50 μg/ml PI, 0.1% Triton X-100, 0.1% sodium citrate). After a 24-h incubation at 4° C., the cells were counted with an XL Coulter (Coulter Corporation) with a 488 nm laser; 12,000 cells were counted for each histogram, and cell cycle distributions were analyzed with the Multicycle program.
10^6 HUVEC were treated with 15 μM of VISY antennapedia (penetratin) chimera or 15 μM of antennapedia peptide (pentratin) alone for 2-4 hours and chromatin fragmentation was analyzed by electrophoresis in an agarose gel.

[1] = target: T1, prohibition receptor protein complex (Mus musculus, UniProt P67778); assay: Adipose receptor protein binding and immunoprecipitation
T1 construct: from tissue; host or cells: mouse adipose tissue extract
T1 sequence (P67778 2-272 limits assumed): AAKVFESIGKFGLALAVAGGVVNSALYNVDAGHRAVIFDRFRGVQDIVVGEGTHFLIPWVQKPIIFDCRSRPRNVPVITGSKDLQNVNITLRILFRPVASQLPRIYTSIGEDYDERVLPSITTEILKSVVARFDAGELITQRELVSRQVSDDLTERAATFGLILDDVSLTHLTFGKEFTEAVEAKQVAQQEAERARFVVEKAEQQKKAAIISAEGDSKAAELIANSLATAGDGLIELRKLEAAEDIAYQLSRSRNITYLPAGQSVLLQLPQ
Protocol: A band of approximately 35,000 Daltons (35 kDa) was isolated from mouse adipose tissue extract that bound to […] (SEQ ID NO:22) conjugated to (KLAKLAK)2 (SEQ ID NO:1). […] The 35 kDa band was analyzed by mass spectrometry, which identified three proteins present in the sample.
The three proteins included predominately a B cell receptor associated protein (prohibition), apolipoprotein E, and the voltage dependent anion channel (VDAC). Further studies were performed by immunoprecipitation, using either […] (SEQ ID NO:22) or CARAC (SEQ ID NO:12) conjugated to (KLAKAK)2 (SEQ ID NO:1) and precipitating with commercially available antibodies.
It is unknown whether those proteins bound to the CARAC (SEQ ID NO:12) moiety or to (KLAKAK)2 (SEQ ID NO:1).

SK-RC-49/APA cells = assay: Phage binding specificity assay on SK-RC-49/APA cells; format: cell-based; details: phage displaying the peptide insert, data not shown
Protocol: The cell binding assay was performed with an input of 10^9 TU as described for the cell panning. The specificity was confirmed by adding […] (SEQ ID NO:56) peptide to the binding medium in increasing concentrations. For phage binding on immunocaptured APA, wells were blocked for 1 h at room temperature with PBS/3% BSA and incubated with 10^9 TU for 1 h at room temperature in 50 μl PBS/3% BSA. After eight washes in PBS/1% BSA/0.01% Tween-20 and two washes in PBS, phage were rescued by adding 200 μl of exponentially growing K91Kan E. coli. Each experiment was repeated at least three times.

[2] = target: T2, β3 integrin cytoplasmic domain (Homo sapiens, UniProt P05106); assay: Binding of Fyn-phosphorylated phage to β3 cytoplasmic domain; details: for Phos/Unphos: Fyn-phosphorylated versus unphosphorylated phage; for β3 or β5/BSA / β3 or β5/GST: X4YX4 library phosphorylated with Fyn
T2 sequence (P05106 742-788 limits assumed): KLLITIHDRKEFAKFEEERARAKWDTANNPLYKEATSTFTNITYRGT
Protocol: (§1) Phosphorylation of peptide libraries with src family protein kinases (Fyn, c-Src, Lyn, and Syc) and serine/threonine kinases such as a MAP kinase were performed as described previously (Schmitz et al., 1996; Dente et al., 1997; Gram et al., 1997). Briefly, phage particles were collected from culture supernatants by double precipitation with 20% polyethylene glycol 8000 in 2.5 M NaCl. Particles were dissolved at 10^12 particles/ml. Purified phage (10 μl) were incubated for 3 hours at room temperature with different concentrations (35 to 3,500 units) of protein kinases in a reaction buffer volume of 50 μl. The reaction mixtures were transferred to tubes containing 10 μg of agarose-conjugated anti-P-Tyr, anti-P-Ser, or anti-P-Thr monoclonal antibodies to select phage displaying phosphorylated peptides. Bound phage were eluted by washing the column with 0.3 ml of elution buffer (0.1 M NaCl/glycine/1 mg/ml BSA, pH 2.35). The eluates were neutralized with 2 M Tris-base and incubated with 2 ml of a mid-log bacteria culture. Aliquots of 20 μl were removed for plating, and phage were harvested as described. The phosphorylation-selection step was repeated. Phosphorylated peptides binding to β3 and β5 cytoplasmic domains were analyzed as described in the previous section.
(§2) Randomly selected clones from rounds III and IV were sequenced from a X4YX4 phosphorylated library with Fyn. Amino acid sequences of the phagemid encoded peptides were deduced from nucleotide sequences. […] The ratio of binding to β3 or β5 was calculated by dividing the number of β3 or β5 colonies by GST or BSA colonies found after panning. The ratio of binding to β3 or β5 with phosphorylated phage by Fyn versus unphosphorylated phage was calculated by dividing the number of colonies found after the panning.
(§3) The effect of phosphorylation on the affinity and specificity of the cytoplasmic domain-binding was examined. Phage displaying the β3 and β5 cytoplasmic domain-binding peptides were phosphorylated in vitro as previously described (Schmitz et al., 1996; Dente et al., 1997; Gram et al., 1997), using Fyn kinase. Specific phosphorylation of the tyrosine-containing peptide on the surface of the phage was confirmed by using ^32P-gamma […] in the kinase reaction and by separating the phage pIII protein by SDS-PAGE.

[3] = target: T3, β5 integrin cytoplasmic domain (Homo sapiens, UniProt P18084); assay: Binding of Fyn-phosphorylated phage to β5 cytoplasmic domain; details: for Phos/Unphos: Fyn-phosphorylated versus unphosphorylated phage; for β3 or β5/BSA / β3 or β5/GST: X4YX4 library phosphorylated with Fyn
T3 construct: screenings involving the β5 cytoplasmic domain fusion protein
T3 sequence (P18084 743-799 limits assumed): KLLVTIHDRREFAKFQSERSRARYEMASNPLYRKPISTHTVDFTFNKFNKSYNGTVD
Protocol: as §1, §2, §3

Compound: CC(C)C[C@@H](NC(=O)[C@@H](CCCCN)NC(=O)CNC(=O)CNC(=O)[C@@H]1CSSC[C@H](N)C(=O)N[C@@H](CCCCN)C(=O)NCC(=O)NCC(=O)N[C@@H](CCCNC(=N)N)C(=O)N[C@@H](C)C(=O)N[C@@H](CCCCN)C(=O)N[C@@H](CC(=O)O)C(=O)N1)C(=O)N[C@H](C)C(=O)N[C@H](CCCCN)C(=O)N[C@H](CC(C)C)C(=O)N[C@H](C)C(=O)N[C@H](CCCCN)C(=O)N[C@H](CCCCN)C(=O)N[C@H](CC(C)C)C(=O)N[C@H](C)C(=O)N[C@H](CCCCN)C(=O)N[C@H](CC(C)C)C(=O)N[C@H](C)C(=O)N[C@H](CCCCN)C(=O)O (H-CKGGRAKDCGG[dK][dL][dA][dK][dL][dA][dK][dK][dL][dA][dK][dL][dA][dK]-OH; disulfide 1-9)
mortality in genetically obese mice (fat vasculature; genetically obese mice, not in normal obese mice): occasionally observed to result in mortality within a few days of injection | abnormalities in other organs (fat vasculature; mouse, in vivo): No abnormalities in other organs

Compound: COC(=O)C[C@H](NC(=O)[C@H](C)NC(=O)[C@@H](NC(=O)OCc1ccccc1)C(C)C)C(=O)CF [zVAD, reference compound] (Cbz-Val-Ala-Asp(OMe)-CH2F)
inhibition of VISY chimeric peptide induced apoptosis (HUVEC cells; added to the media at the same time as the VISY chimeric peptide): up to 70%

Compound: CARAC-(KLAKLAK)2: control CARAC (SEQ ID NO:12) fused to (KLAKLAK)2 (SEQ ID NO:1) (CARACKLAKLAKKLAKLAK) [reference compound]
histopathological analysis of white fat (fat vasculature; TUNEL, hematoxylin/eosin): no vascular apoptosis or fat necrosis | body mass change (in words) (fat vasculature; high-fat cafeteria diet-fed obese C57BL/6 mice, equimolar amount, sc daily): did not show a significant body mass decrease | binding of 35 kDa band from mouse adipose tissue extract ([1]; data not shown): much less binding | binding to VDAC, prohibition and apolipoprotein E ([1]; immunoprecipitation): low levels of non-specific binding to all three proteins

Compound: CGTGCAVECEVVC
selective binding of phage to SK-RC-49/APA cells (SK-RC-49/APA cells): no selective binding

enrichment of prohibition receptor protein complex in precipitated fraction compared to CARAC precipitated fraction ([1]; immunoprecipitation, SDS-PAGE, data not shown): over a ten-fold enrichment
Compound: CKGGRAKDC

Phos/Unphos [2]: 13.2 | β3 or β5/BSA [2]: 5.3 | β3 or β5/GST [2]: 1.5
Compound: GGGSYRHVE

Phos/Unphos [2]: 2.5 | β3 or β5/BSA [2]: 2.7 | β3 or β5/GST [2]: 3.5
Compound: MLLGYRFEK

Phos/Unphos [3]: 3.8 | β3 or β5/BSA [3]: 15.2 | β3 or β5/GST [3]: 3.8
Compound: TLRKYFHSS

Phos/Unphos [3]: 4.2 | β3 or β5/BSA [3]: 3.8 | β3 or β5/GST [3]: 2.3
Compound: TMLRYFMFP

Phos/Unphos [3]: 14.3 | β3 or β5/BSA [3]: 2.2 | β3 or β5/GST [3]: 3.4
Compound: TMLRYTVRL

Compound: VISY-penetratin chimera: VVISYSMPD (β5 cytoplasmic domain-binding peptide) coupled to penetratin, plus a biotin moiety (VVISYSMPDRQIKIWFQNRRMKWKK; also: biotin moiety, place not given here)
induction of apoptosis (chromatin fragmentation) (HUVEC cells; 10^6 HUVEC, 15 μM, 2-4 hours): induction of apoptosis | induction of apoptosis (propidium iodide staining) (HUVEC cells; HUVEC, 15 μM, four hours): induction of apoptosis
